Data on 19 substances can be found in patent publication US6018021.

Assay [1] has as its target full-length recombinant TAL-H protein (38 kDa), cleaved with thrombin from a GST fusion protein (human).
Assay [2] has the same target. This is another data set of the same source.
For assay [3], the target named is purified human myelin basic protein (18.5 kDa) (human) (UniProt P02686).
Assay [4] deals with tetanus toxoid (Clostridium tetani (strain Massachusetts / E88)) (UniProt P04958).

For the substance “peripheral blood lymphocytes of MS patient eleven (cells without a defined receptor)”, in assay [1], the 3H-TdR incorporation, Stimulation Index (S.I.) worked out at 10.3 S.I.
For “peripheral blood lymphocytes of control donor sixteen (cells without a defined receptor)”, in assay [1], the 3H-TdR incorporation, Stimulation Index (S.I.) was 1.4 S.I.
Regarding “peripheral blood lymphocytes of MS patient six (cells without a defined receptor)”, in assay [1], the 3H-TdR incorporation, Stimulation Index (S.I.) is 2.9 S.I.
The same measure, in the same setting: to “peripheral blood lymphocytes of MS patient twelve (cells without a defined receptor)” belongs 3.1 S.I; to “peripheral blood lymphocytes of control donor ten (cells without a defined receptor)”, 2.3 S.I.
In the case of “peripheral blood lymphocytes of MS patient fourteen (cells without a defined receptor)”, the 3H-TdR incorporation, Stimulation Index (S.I.) in assay [1] is 7.1 S.I.
Same read-out and setting: to “peripheral blood lymphocytes of MS patient nine (cells without a defined receptor)” belongs 3.1 S.I; to “peripheral blood lymphocytes of MS patient seven (cells without a defined receptor)”, 1.4 S.I; to “peripheral blood lymphocytes of MS patient five (cells without a defined receptor)”, 3.3 S.I.
For “peripheral blood lymphocytes of MS patient four (cells without a defined receptor)”, in assay [1], the 3H-TdR incorporation, Stimulation Index (S.I.) was 2.7 S.I.
The same measure, in the same setting: under “peripheral blood lymphocytes of control donor three (cells without a defined receptor)” stands 1 S.I.
Take “peripheral blood lymphocytes of MS patient thirteen (cells without a defined receptor)”: the Stimulation Index in assay [2] was determined as 3.95 S.I; in assay [3] it was 2.25 S.I; in assay [4], 0.79 S.I.
Turning to “peripheral blood lymphocytes of MS patient seventeen (cells without a defined receptor)”, the Stimulation Index worked out at 6.47 S.I in assay [2], 3.01 S.I in assay [3] and 3.81 S.I in assay [4].
Take “peripheral blood lymphocytes of control donor PRO (cells without a defined receptor)”: the 3H-TdR incorporation, Stimulation Index (S.I.) in assay [1] amounted to 1 S.I.
For the substance “peripheral blood lymphocytes of MS patient one (cells without a defined receptor)”, the Stimulation Index stood at 1.81 S.I in assay [2], 0.89 S.I in assay [3] and 0.8 S.I in assay [4].
The matching figures for “peripheral blood lymphocytes of MS patient fifteen (cells without a defined receptor)”: 4.61 S.I, 1.53 S.I and 0.96 S.I.
Take “peripheral blood lymphocytes of control donor PEG (cells without a defined receptor)”: the 3H-TdR incorporation, Stimulation Index (S.I.) in assay [1] was 0.7 S.I.
In the case of “peripheral blood lymphocytes of MS patient two (cells without a defined receptor)”, in assay [1], the 3H-TdR incorporation, Stimulation Index (S.I.) amounted to 4.7 S.I.
For “peripheral blood lymphocytes of MS patient eight (cells without a defined receptor)”, the 3H-TdR incorporation, Stimulation Index (S.I.) in assay [1] amounted to 4.5 S.I.
